Results on 2 molecules are retold here after US20240124586A1 (WUXI BIOLOGICS IRELAND, published 2024).

In experiment [1] the target is T1, hCTLA4.ECD.hFc (human).
T1 construct: ECD fused to a human Fc; not biotinylated; also called Human CTLA-4: W316-hPro1.ECD.hFc (in house)
Description: dual-binding ELISA (hCTLA4.ECD.hFc coated, detected with hPD-1-ECD.Biotin), sample kept 0 d in human serum at 37 C. Here is the method:
(§1) The antibodies were incubated in freshly isolated human serum at 37° C. On indicated time points, an aliquot of serum treated sample was removed from the incubator and snap frozen in liquid nitrogen, and then stored at −80° C. until ready for a dual-binding ELISA test. The frozen samples were quickly thawed immediately prior to the stability test. Briefly, plates were pre-coated with 0.5 μg/mL of hCTLA4.ECD.hFc (in house) at 4° C. overnight. After 1-hour blocking, the testing antibodies were added to the plates at various concentrations. The plates were incubated at ambient temperature for 1 hour. Following the incubation, the plates were washed three times with 300 μL per well of PBS containing 0.5% (v/v) Tween 20. Then 0.1 μg/ml hPD-1-ECD.Biotin was added to plates and the mixture was incubated for 1 hour. After washing the plates three times, Streptavidin-HRP (Lifetechnologies, #SNN1004) (1:20000 diluted) was added and incubated on the plates for 1 hour at room temperature. After washing six times with 300 μL per well of PBS containing 0.5% (v/v) Tween 20, 100 μL tetramethylbenzidine (TMB) substrate is added for the detection per well. The reaction was stopped after approximately 5 minutes by addition of 100 μL per well of 2 M HCl. The absorbance of the wells was measured at 450 nm with a multiwall plate reader (SpectraMax® M5e). […]

For experiment [2], the target named is T1, hCTLA4.ECD.hFc. The experiment is described as follows: dual-binding ELISA (hCTLA4.ECD.hFc coated, detected with hPD-1-ECD.Biotin), sample kept 4 d in human serum at 37 C. Here is the method:
as §1

For experiment [3], the target named is T2, cynomolgus PD-1 on engineered 293F cells (W305-293F.cynoPro1.FL.pool) (cynomolgus).
T2 construct: whole, on cells; also called cynomolgus PD-1 engineered cells
Description: FACS binding to cynomolgus PD-1 engineered cells. Here is the method: 4.0-fold titrated Abs with 1% BSA DPBS from 40 μg/ml to 0.0001526 μg/ml were added to the cells. Plates were incubated at 4° C. for 1 hour. After wash, […] 1:150 diluted PE-labeled goat anti-human antibody (Jackson 109-115-098) was added to each well and the plates were incubated at 4° C. for 1 hour. The binding of the antibodies onto the cells was tested by flow cytometry and the mean fluorescence intensity (MFI) was analyzed by FlowJo.
A general note: Flow cytometry measures light scatter and fluorescence of single cells or particles in a stream.

For experiment [4], the target named is T3, ECD of human PD-1 (SPR analyte) (human, UniProt Q15116 25-170).
T3 construct: extracellular domain; the SPR method only says ECD of PD-1; also called W305-hPro1.ECD.His
The experiment is described as follows: SPR (Biacore T200), antibody captured by anti-human Fc, PD-1 ECD as analyte. The procedure:
(§2) SPR technology was used to measure the on-rate constant (ka) and off-rate constant (kd) of the antibodies to ECD of CTLA-4 or PD-1. The affinity constant (KD) was consequently determined.
(§3) Biacore T200, Series S Sensor Chip CM5, Amine Coupling Kit, and 10×HBS-EP were purchased from GE Healthcare. Goat anti-human IgG Fc antibody was purchased from Jackson ImmunoResearch Lab (catalog number 109-005-098). In immobilization step, the activation buffer was prepared by mixing 400 mM EDC and 100 mM NHS immediately prior to injection. The CM5 sensor chip was activated for 420 s with the activation buffer. 30 μg/mL of goat anti-human IgG Fcγ antibody in 10 mM NaAc (pH 4.5) was then injected to Fc1-Fc4 channels for 200 s at a flow rate of 5 μL/min. The chip was deactivated by 1 M ethanolamine-HCl (GE). Then the antibodies were captured on the chip. Briefly, 4 μg/mL antibodies in running buffer (HBS-EP+) was injected individually to Fc3 channel for 30 s at a flow rate of […]. […] Regeneration buffer (10 mM Glycine pH 1.5) was injected at 10 μL min for 30 s following every dissociation phase.

Experiment [5] deals with T1, hCTLA4.ECD.hFc. Description: dual-binding ELISA (hCTLA4.ECD.hFc coated, detected with hPD-1-ECD.Biotin), sample kept 14 d in human serum at 37 C. The procedure: as §1
Background: An ELISA detects its analyte on a solid surface through an enzyme-linked reagent.

The target of experiment [6] is T4, cynomolgus CTLA-4 on engineered 293F cells (W316-293F.cynoPro1.F1.Pool) (cynomolgus).
T4 construct: whole, on cells; also called cynomolgus CTLA-4 engineered cells
Description: FACS binding to cynomolgus CTLA-4 engineered cells. The procedure: 4-fold titrated Abs with 1% BSA DPBS from 40 μg/ml to 0.00004 μg/ml were added to the cells. Plates were incubated at 4° C. for 1 hour. After wash, […] 1:150 diluted PE-labeled goat anti-human antibody (Jackson 109-115-098) was added to each well and the plates were incubated at 4° C. for 1 hour. The binding of the antibodies onto the cells was tested by flow cytometry and the mean fluorescence intensity (MFI) was analyzed by FlowJo.

Experiment [7] deals with T3, ECD of human PD-1 (SPR analyte). The experiment is described as follows: SPR (Biacore), antibody captured as ligand on an anti-human IgG Fc chip, PD-1 ECD as analyte. Here is the method: as §2, §3
(In SPR one partner is held on a chip, and binding of the other changes the refractive index at the surface.)

The target of experiment [8] is T5, human PD-1 on engineered CHO-S cells (W305-CHO-S.hPro1.C6) (human, UniProt Q15116 25-288).
T5 construct: whole, on cells; also called human PD-1 engineered cells; PD-1+ cells
The experiment is described as follows: FACS competition: blocks human PD-L1 protein (W315-hPro1.ECD.mFc) binding to human PD-1 engineered cells. The procedure:
In order to test whether the bispecific antibodies could block hPD-L1 binding to hPD-1 protein, a competitive FACS was conducted. […] Plates were incubated at 4° C. for 1 hour. After wash, the binding of W315-hPro1.ECD.mFc to cell expressive human PD-1 was detected by FITC-labeled goat anti-mouse antibody (abcam 98716 1:125). The competition binding of antibodies to the cells was tested by flow cytometry and the mean fluorescence intensity (MFI) was analyzed by FlowJo.

In experiment [9] the target is T1, hCTLA4.ECD.hFc. Description: dual-binding ELISA (hCTLA4.ECD.hFc coated, detected with hPD-1-ECD.Biotin), sample kept 7 d in human serum at 37 C. The procedure: as §1

T3 sequence (Q15116 25-170): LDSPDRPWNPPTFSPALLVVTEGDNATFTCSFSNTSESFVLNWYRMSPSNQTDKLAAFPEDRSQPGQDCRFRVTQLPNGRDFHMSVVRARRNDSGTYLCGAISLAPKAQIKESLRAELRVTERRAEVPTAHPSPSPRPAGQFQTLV
T1 sequence (P16410 36-161): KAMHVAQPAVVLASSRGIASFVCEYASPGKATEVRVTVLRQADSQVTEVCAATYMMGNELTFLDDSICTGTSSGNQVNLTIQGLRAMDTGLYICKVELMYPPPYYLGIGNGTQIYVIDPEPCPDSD
T5 sequence (Q15116 25-288, change not shown): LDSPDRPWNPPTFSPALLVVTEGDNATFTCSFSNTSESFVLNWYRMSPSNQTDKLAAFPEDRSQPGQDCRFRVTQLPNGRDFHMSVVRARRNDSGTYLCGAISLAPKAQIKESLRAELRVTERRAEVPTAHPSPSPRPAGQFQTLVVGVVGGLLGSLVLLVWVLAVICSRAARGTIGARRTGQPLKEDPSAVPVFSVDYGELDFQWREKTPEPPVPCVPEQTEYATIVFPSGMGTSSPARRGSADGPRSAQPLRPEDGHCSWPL

B1: W3248-U6T1.G25R-1.uIgG4.SP, bispecific anti-PD-1 x CTLA-4 (bispecific antibody)
heavy: EVQLLESGGGLVQPGGSLRLSCAASGFTFSSHAMSWVRQAPGKGLEWVSTITGGGGSIYYADSVKGRFTISRDNSKNTLYLQMNSLRAEDTAVYYCAKNRAGEGYFDYWGQGTLVTVSSASTKGPSVFPLAPCSRSTSESTAALGCLVKDYFPEPVTVSWNSGALTSGVHTFPAVLQSSGLYSLSSVVTVPSSSLGTKTYTCNVDHKPSNTKVDKRVGGGGSGGGGSQVQLVESGGGVVQPGRSLRLSCAASGFTFSSYTMHWVRQAPGKGLEWVTFISYDGNNKYYADSVKGRFTISRDNSKNTLYLQMNSLRAEDTAIYYCARTGWLGPFDYWGQGTLVTVLEDLKNVFPPEVAVFEPSEAEISHTQKATLVCLATGFYPDHVELSWWVNGKEVHSGVCTDPQPLKEQPALQDSRYALSSRLRVSATFWQNPRNHFRCQVQFYGLSENDEWTQDRAKPVTQIVSAEAWGRYGPPCPPCPAPEFLGGPSVFLFPPKPKDTLMISRTPEVTCVVVDVSQEDPEVQFNWYVDGVEVHNAKTKPREEQFNSTYRVVSVLTVLHQDWLNGKEYKCKVSNKGLPSSIEKTISKAKGQPREPQVYTLPPSQEEMTKNQVSLTCLVKGFYPSDIAVEWESNGQPENNYKTTPPVLDSDGSFFLYSRLTVDKSRWQEGNVFSCSVMHEALHNHYTQKSLSLSLG
light 1: SYELTQPLSVSVALGQTARITCGGDNIGNKDVHWYQQKPGQAPVLVIYRDSNRPSGIPEGFSGSNSGNTATLTISRAQAGDEADYYCQVWDSIWVFGGGTKLTVLGQPKAAPSVTLFPPSSEELQANKATLVCLISDFYPGAVTVAWKADSSPVKAGVETTTPSKQSNNKYAASSYLSLTPEQWKSHKSYSCQVTHEGSTVEKTVAPTECS
light 2: not shown
notes: IgG4 (S228P); also called U6T1.G25R.IgG4
On to B1, for which the EC50 – broadly, the concentration at which the effect is half-maximal – in the experiment with hCTLA4.ECD.hFc [1] was 0.14 nM; with hCTLA4.ECD.hFc [2] it was 0.141 nM; in experiment [3], 4.71 nM; in the experiment with hCTLA4.ECD.hFc [5], 0.156 nM; in experiment [6], 5.87 nM; in the experiment with hCTLA4.ECD.hFc [9] it was 0.145 nM. Further, the “Top(MFI)” value amounted to 66800 MFI in [3] and 6650 MFI in experiment [6]. In addition, in experiment [4], the equilibrium dissociation constant (Kd) (usually the free concentration of one partner at which half of the binding sites on the other are occupied at equilibrium, for simple one-to-one binding) was 1.24 nM. The koff (as a rule, the first-order rate constant of dissociation) in experiment [7] was determined as 0.000675 s⁻¹. Also, the on-rate (kon) (in general, a measure of how fast the partners come together) in experiment [7] came out at 542000 M⁻¹ s⁻¹. The molecule also displayed an Inhibition % in experiment [8] of 98.6%.

B2: W3248-U6T5.G25-1.uIgG4.SP, bispecific anti-PD-1 x CTLA-4 (bispecific antibody)
heavy: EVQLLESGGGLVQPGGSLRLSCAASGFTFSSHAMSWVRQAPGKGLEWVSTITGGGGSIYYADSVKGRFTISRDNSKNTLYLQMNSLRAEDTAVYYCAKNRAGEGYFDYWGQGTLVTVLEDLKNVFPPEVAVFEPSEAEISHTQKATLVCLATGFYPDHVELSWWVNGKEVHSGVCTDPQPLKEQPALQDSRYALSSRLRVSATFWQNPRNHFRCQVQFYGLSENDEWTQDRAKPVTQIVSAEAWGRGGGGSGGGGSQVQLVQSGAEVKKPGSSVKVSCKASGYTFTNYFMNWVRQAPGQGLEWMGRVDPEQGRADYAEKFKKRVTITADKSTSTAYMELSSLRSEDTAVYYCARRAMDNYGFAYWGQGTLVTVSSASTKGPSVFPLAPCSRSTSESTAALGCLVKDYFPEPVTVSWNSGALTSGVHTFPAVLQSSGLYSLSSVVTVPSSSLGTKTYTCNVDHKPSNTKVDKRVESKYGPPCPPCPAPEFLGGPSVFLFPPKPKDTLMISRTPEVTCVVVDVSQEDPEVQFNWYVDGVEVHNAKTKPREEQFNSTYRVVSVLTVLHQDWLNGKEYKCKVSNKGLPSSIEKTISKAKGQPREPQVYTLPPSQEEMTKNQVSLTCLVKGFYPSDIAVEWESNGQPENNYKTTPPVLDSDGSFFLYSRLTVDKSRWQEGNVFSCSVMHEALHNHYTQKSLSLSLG
light 1: SYELTQPLSVSVALGQTARITCGGDNIGNKDVHWYQQKPGQAPVLVIYRDSNRPSGIPEGFSGSNSGNTATLTISRAQAGDEADYYCQVWDSIWVFGGGTKLTVLPDIQNPDPAVYQLRDSKSSDKSVCLFTDFDSQTQVSQSKDSDVYITDKCVLDMRSMDFKSNSAVAWSQKSDFACANAFQNSIIPEDTFFPSPESS
light 2: EIVLTQSPDFQSVTPKEKVTITCSANSALSYMYWYQQKPDQSPKLWVHGTSNLASGVPSRFSGSGSGTDFTLTINSLEAEDAATYYCHHWSNTQWTFGGGTKVEIKRTVAAPSVFIFPPSDEQLKSGTASVVCLLNNFYPREAKVQWKVDNALQSGNSQESVTEQDSKDSTYSLSSTLTLSKADYEKHKVYACEVTHQGLSSPVTKSFNRGEC
notes: IgG4 (S228P); also called WBP3248-U6T5.G25-1-uIgG4.SP; U6T5.G25.IgG4
Take B2: the EC50 with hCTLA4.ECD.hFc [1] amounted to 0.092 nM; in the experiment with hCTLA4.ECD.hFc [2], 0.0944 nM; in [3] it was 5.13 nM; with hCTLA4.ECD.hFc [5], 0.0989 nM; in [6] it was 1.45 nM; with hCTLA4.ECD.hFc [9], 0.101 nM. Moreover, the entries for the “Top(MFI)” value in experiment [3] and in experiment [6] were 68100 MFI and 11200 MFI, respectively. In experiment [4], this molecule showed a dissociation constant (Kd) of 1.32 nM. For the same molecule, in experiment [7], the koff stood at 0.000844 s⁻¹. Further, the on-rate constant (kon) in experiment [7] amounted to 642000 M⁻¹ s⁻¹. In [8], this molecule had an Inhibition % of 94.4%.
